# According to patent US20240100133A1, “ENZYMATICALLY INACTIVE GRANZYME A AND USES THEREFORE” (Saint Louis University, priority 2022, published 2024):
# B1: GzmA-WT: recombinant wild-type human Granzyme A, homodimeric serine protease, purified from HEK293T supernatants (protein)
# chain: IIGGNEVTPHSRPYMVLLSLDRKTICAGALIAKDWVLTAAHCNLNKRSQVILGAHSITREEPTKQIMLVKKEFPYPCYDPATREGDLKLLQLMEKAKINKYVTILHLPKKGDDVKPGTMCQVAGWGRTHNSASWSDTLREVNITIIDRKVCNDRNHYNFNPVIGMNMVCAGSLRGGRDSCNGDSGSPLLCEGVFRGVTSFGLENKCGDPRGPGVYILLSKKHLNWIIMTIKGAV
# modifications: left off: small tags and cut ends
# notes: recombinant wild-type human Granzyme A, homodimeric serine protease, purified from HEK293T supernatants
# Experiments:
# Rab11-FIP1 = assay: Quantitative shotgun proteomics of treated and infected monocytes; type: cell-based, human; settings: 200 nM GzmA, infected cells (MOI=3), overnight
# Method: Quantitative shotgun proteomics. 1.5e5 human monocytes were either treated or not with 200 nM GzmA, and infected or not with mycobacteria (MOI=3) overnight. After incubation, cells were then washed thrice with PBS, and the pellet lysed using lysis buffer from EasyPep Mini MS Sample Prep Kit (Cat #A40006, Thermo-Fisher, Waltham, MA) supplemented with 1:100 HALT phosphatase inhibitor (Cat #78420, Thermo-Fisher, Waltham, MA). Lysis, reduction/alkylation, protein digestion, and peptide clean-up were performed according to EasyPep recommendations. […] After peptide cleanup, samples were dried using a vacuum centrifuge, and then resuspended in 0.1% formic acid in water for LC-MS analysis. The samples were analyzed on a Q-Exactive orbitrap MS/MS equipped with a nanospray emitter (Thermo Fisher Scientific, Waltham, MA). Nanospray parameters in positive ion mode were as follows: spray voltage, 2.0 KV; capillary temperature, 320° C.; S-lens RF level, 55. […] The MS/MS spectra were analyzed using Sequest HT and MSPepSearch, both integrated in Proteome Discoverer 2.4.1.15 (Thermo Scientific, MA). […] Finally, the results were subjected to statistical analysis using percolator node where the False discovery rate (FDR) was calculated using a decoy database search and only high confidence peptide identifications with FDR 0.01 were included. […]
# [1] = tested on: human monocytes infected with BCG-GFP; assay: Phagocytic score, BCG-GFP uptake by monocytes; settings: 2 h of infection with BCG-GFP
# Method: Monocytes were treated or not with GzmA, after which BCG-GFP was used to infect cells for 2 hours. Cells were then washed twice with FACS buffer and processed by flow cytometry. The phagocytic score was measured as previously described (Ackerman et al., 2011).
# [2] = tested on: LAMP1 (phagolysosome fusion); assay: Confocal microscopy colocalization of BCG-GFP and LAMP1; type: cell-based, human; settings: compared with untreated controls
# Method: Confocal microscopy and Stimulation Emission Depletion (STED) experiments. For confocal and STED microscopy experiments, cells were incubated on coverslips pre-treated with Cell-Tak (Corning #354240). At the time of fixation, cells were washed twice with 1×RT PBS, and then fixed in 4% paraformaldehyde for 15 min at 37° C. Slides were washed thrice for 5 min at RT with 1×PBS, and then blocked with 5% donkey serum (Cat. #017-000-121, Jackson ImmunoResearch, West Grove, PA) with 0.25% Tween-20 (Cat. #P9416, Sigma, St. Louis, MO) and True Stain Fc blocker (added only during blocking step) (Cat. #426101, Biolegend, San Diego, CA). Cells were then incubated overnight at 4° C. with primary antibody anti-GzmA (Cat. #MAB29051, R&D, Minneapolis, MN) at 12.5 μg/mL in blocking buffer, anti-PDIA1 (Cat. #MAB4236, R&D, Minneapolis, MN) at 12.5 μg/mL in blocking buffer, anti-LAMP1 at 12.5 ug/ml (Cat. #MAB4800, R&D, Minneapolis, MN), or anti-ATPSH (Cat. #ab110275, Abcam, Cambridge, UK) at 5 μg/mL in blocking buffer. To remove unbound antibody, cells were washed four times with 1×PBS at RT, and then incubated in the dark for 2 h with secondary antibody conjugated with Alexa Fluor 594 (Cat. #715-545-150, Jackson Immunoresearch, West Grove, PA) at 1:100 or Atto 647N (Cat. #ASR3248, Abcepta, San Diego, Ca) at 1:100. […]
# [3] = tested on: Protein Disulfide Isomerase A1 (PDIA1); settings: human monocytes infected and treated with GzmA; cited from earlier work
# mycobacteria BCG-GFP = type: binding
# [4] = tested on: mycobacteria within iMac-WT mouse cells; type: cell-based; settings: human GzmA on mouse iMac-WT cells
# [5] = tested on: mycobacteria within iMac TLR4KO cells; assay: MGIA in iMac TLR4KO cells; type: cell-based, mouse
molecule,measurement,setting,value
B1,Rab11-FIP1 protein level,Rab11-FIP1,upregulated
same,phagocytic score,[1],higher phagocytic score compared to untreated cells
same,colocalization between LAMP1 and BCG-GFP,[2],greater degree of colocalization
same,PDIA1 upregulation compared to control,[3],90%
same,binding to mycobacteria,mycobacteria BCG-GFP,bound mycobacteria
same,inhibition of mycobacterial growth in iMac-WT cells,[4],modestly inhibit mycobacterial growth
same,inhibition of intracellular mycobacterial growth in TLR4-deficient iMac cells,[5],incapable of inhibiting intracellular mycobacterial growth
